{"source": "patent US9505841B2", "about": "“Use of an anti-Ang2 antibody” (Samsung Electronics Co., Ltd., priority 2013, dated 2016)", "molecules": {"B1": {"name": "4H10: anti-Ang2 antibody inhibiting Ang2-Tie2 binding; heavy chain variable region SEQ ID NO: 12, light chain variable region SEQ ID NO: 13 (antibody, V domains shown)", "VH": "EVQLLESGGGLVQPGGSLRLSCAASGFTFSSYDMSWVRQAPGKGLEWVSLISPDSSSIYYADSVKGRFTISRDNSKNTLYLQMNSLRAEDTAVYYCAKDLISFWRGGFDYWGQGTLVTVSS", "VL": "QSVLTQPPSASGTPGQRVTISCSGSSSNIGSNYVNWYQQLPGTAPKLLIYADSNRPSGVPDRFSGSKSGTSASLAISGLRSEDEADYYCGSWDYSLSGYVFGGGTKLTVLG", "modifications": "Synthetic (heavy chain variable region of 4H10); Synthetic (light chain variable region of 4H10)"}}, "key": {"Ang2-Tie2 binding": {"biological_target": "T1, Ang2-Tie2 binding (Homo sapiens, UniProt O15123)", "T1 construct": "purchased R&D Systems (hTie2-Fc)", "T1 sequence (O15123 19-496)": "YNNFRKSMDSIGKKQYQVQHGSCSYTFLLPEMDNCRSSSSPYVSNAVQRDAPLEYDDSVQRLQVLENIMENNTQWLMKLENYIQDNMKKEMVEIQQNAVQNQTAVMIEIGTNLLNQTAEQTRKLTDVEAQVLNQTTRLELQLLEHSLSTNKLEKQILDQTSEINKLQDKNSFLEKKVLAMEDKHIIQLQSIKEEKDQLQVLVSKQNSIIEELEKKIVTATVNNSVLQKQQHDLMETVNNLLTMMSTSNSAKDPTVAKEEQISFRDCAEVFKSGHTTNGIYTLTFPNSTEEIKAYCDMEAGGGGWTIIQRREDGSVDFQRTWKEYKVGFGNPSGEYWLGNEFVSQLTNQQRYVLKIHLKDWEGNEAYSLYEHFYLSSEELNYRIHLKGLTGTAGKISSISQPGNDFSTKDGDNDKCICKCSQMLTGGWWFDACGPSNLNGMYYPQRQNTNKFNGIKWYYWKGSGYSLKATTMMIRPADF", "assay": "Ang2-Tie2 binding competition ELISA", "conditions": "antibody 400 nM to 0.001 nM; 400 ng/ml FLAG-tagged hAng2; hTie2-Fc coated plate", "experimental": "Ang2-Tie2 binding competition ELISA was conducted using the antibody binding to Ang2 prepared in Example 2-1 above.\nMore specifically, MaxiSorp™ flat-bottom plate (Nunc) of 96-well was coated with hTie2-Fc (R&D Systems) which is a protein bound with 4 ug (microgram)/ml of Fc of human IgG1. After that, the plate was washed five times with 0.05% (v/v) Tween-20-containing PBS (phosphate buffer saline) and then blocked with 1% (v/v) BSA (bovine serum albumin; Sigma)-containing PBS at a room temperature for 2 hour.\nFor Ang2:Tie2 competition ELISA, each anti-Ang2 antibody obtained in Example 2 was placed at various concentrations of 400 nM to 0.001 nM into each well coated with the hTie-2/Fc fusion protein along with 1% (v/v) BSA and 400 ng/ml of a FLAG-tagged hAng2 and then, the plate was allowed to react at a room temperature for 2 hours and washed five times with PBST. […] Lastly, 100 ul (microliter) of TMB substrate (Cell Signaling) was added to each well of the plate to induce color development for 3 min. and then, the reaction was ceased by the addition of 100 ul of Stop solution (Cell Signaling) and OD450 values were measured on a plate reader (Molecular Devices). […]"}, "[1]": {"system": "LLC (Lewis Lung Carcinoma)", "assay": "LLC tumor growth model", "format": "in vivo, mouse", "conditions": "LLC in C57BL/6 mice; 10 mg/kg intraperitoneal three times a week; control Fc of IgG1", "experimental": "To see the tumor growth inhibitory effects of Ang2 antibody, a […] Xenograft model using a LLC (Lewis Lung Carcinoma) was employed.\nLLC cells (ATCC) were cultured using 10% FBS (Gibco)-supplemented DMEM (Gibco) media. 1×10^6 of LLC cells were re-suspended in 100 ul of PBS (Gibco) and then subcutaneously injected into 6˜8-week-old C57BL/6 mice (Jackson Laboratory) anesthetized with 1˜2% isoflurane.\nWhen the size of tumors reached 50˜100 mm^3, anti-Ang2 antibody (10D6) was injected at the concentration of 10 mg/kg via an intraperitoneal injection three times a week and the size of the tumors was measured.\nThe size of tumor (V) was calculated using the following formula: Volume (V)=(width)2×length/2\nFor comparison, the same experiment was performed to a control group treated with Fc of IgG1 and a comparative group treated with antibody 4H10 (refer to Example 3)."}, "LLC tumor": {"system": "LLC tumor", "assay": "Co-administration of anti-Ang2 antibody and cisplatin in LLC lung cancer animal model", "format": "in vivo, mouse", "conditions": "LLC mice; antibody 10 mg/kg i.p. every three days, five times; cisplatin 3 mg/kg i.p. once; control Fc of IgG1", "experimental": "The synergistic effect of co-treatment of antibody 10D6 and cisplatin was examined.\nIn particular, referring to Example 14, LLC tumor cells were subcutaneously injected into mice. When the size of tumors reached 50˜100 mm^3, anti-Ang2 antibody 10D6 was injected at the concentration of 10 mg/kg via an intraperitoneal injection every three days a total of five times. After administering antibody 10D6 twice, 3 mg/kg of cisplatin (Sigma-Aldrich) was intraperitoneally injected once. The size of tumor (V) was calculated using the following formula: Volume (V)=(width)2×length/2\nFor comparison, the same experiment was performed to a control group treated with Fc of IgG1 and a comparative group treated with antibody 4H10.\nIn addition, an experiment was performed to examine whether the synergistic effect obtained by co-administration of 10D6 and cisplatin as described above is due to the increased transporting efficiency of the administered cisplatin induced by the vascular normalization by treatment of 10D6. Cisplatin binds to DNA in a living body and induces crosslinking, thereby inducing cell death. Rat monoclonal anti-Cisplatin modified DNA (CP9/19) antibody (1:200, Abcam), which is capable of binding to DNA modified by cisplatin in tumor frozen sections, and hamster anti-CD31 antibody (1:200, Millipore), were used for immunofluorescence staining, and fluorescence images were obtained using LSM5 confocal microscope (Zeiss). In addition, to examine necrotic region, the tumor frozen sections were stained with H&E according to standard protocol, and then, Eosin+ cell region in tumor was observed. The obtained results are illustrated in FIG. 18C."}}}
{"molecule": "B1", "values": [{"measurement": "inhibition of Ang2-Tie2 binding", "setting": "Ang2-Tie2 binding", "result": "inhibiting Ang2-Tie2 binding"}, {"measurement": "inhibition of growth of the tumor compared to the control group", "setting": "[1]", "result": "about 27%"}, {"measurement": "tumor size decreased by, compared to the control", "setting": "LLC tumor", "result": 29.2, "unit": "%"}]}
